Laboratory results: publication PMC6872904

Target: Bmp8
Assay: SEC

- stoichiometry N: 2
Substance: Bmp8 (enzyme)
